In patent publication US20190263905A1 (DINONA, published 2019):

What was measured:
[1] = molecular target: T1, Antigen CD66c (CEACAM6; Sino Biological, Inc.) (UniProt P40199 35-320); test: ELISA, coated CEACAM6 100 ng/well, antibody 0.17 ng/ml
T1 construct: Bought antigen coated on the ELISA plate; construct not described; also called CD66c antigen; CECACAM6
T1 sequence (looked up): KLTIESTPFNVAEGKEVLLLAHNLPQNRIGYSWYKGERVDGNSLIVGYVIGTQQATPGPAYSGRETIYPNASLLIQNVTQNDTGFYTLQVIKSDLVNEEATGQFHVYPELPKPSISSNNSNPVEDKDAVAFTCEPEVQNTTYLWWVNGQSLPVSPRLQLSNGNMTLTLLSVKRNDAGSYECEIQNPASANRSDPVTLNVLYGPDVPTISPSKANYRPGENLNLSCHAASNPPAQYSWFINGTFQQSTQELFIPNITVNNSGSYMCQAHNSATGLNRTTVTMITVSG
Experimental: (§1) Antigen CD66c (CEACAM6; Sino Biological, Inc.) and CEACAM1 antigen (Sino Biological, Inc.) were coated on a 96-well plate at 100 ng per well and then blocked. The primary antibody was diluted serially three fold from 10 ug/ml at initial concentration and was bound at 37° C. for 1 hour, and goat anti-Human Ig-HRP conjugate (Jackson ImmunoResearch) as a secondary antibody was diluted 1:10,000 and incubated at 37° C. for 30 minutes. The washing was carried out at three times between each step, and the TMB reaction was performed, stopped with 1N H₂SO₄ solution at the same amount of TMB solution (100 ul) and then OD value was measured at 450 nm.
(§2) As a result of the experiment, the binding affinities to CD66c antigen of the five kinds of recombinant humanized antibodies selected from among 96 kinds of recombinant humanized antibodies are shown in FIG. 4a, Table 12, FIG. 4b and Table 13. FIG. 4a and Table 12 show the binding capacity of the antibodies to CECACAM6 CD66c) antigen, and FIG. 4b and Table 13 are the results for the CEACAM1 (CD66a) antigen.

[2] = molecular target: T1, Antigen CD66c (CEACAM6; Sino …); test: ELISA, coated CEACAM6 100 ng/well, antibody 0.51 ng/ml
Experimental: as §1, §2

[3] = molecular target: T2, CD66c (CEACAM6) on CD66c-positive A549 non-small-cell lung cancer cells (UniProt P40199 35-320, limits assumed); test: flow cytometry on CD66c-positive A549 cells, mean fluorescence
T2 construct: whole, on cells; also called CD66c antigen; NCA-90
T2 sequence (looked up): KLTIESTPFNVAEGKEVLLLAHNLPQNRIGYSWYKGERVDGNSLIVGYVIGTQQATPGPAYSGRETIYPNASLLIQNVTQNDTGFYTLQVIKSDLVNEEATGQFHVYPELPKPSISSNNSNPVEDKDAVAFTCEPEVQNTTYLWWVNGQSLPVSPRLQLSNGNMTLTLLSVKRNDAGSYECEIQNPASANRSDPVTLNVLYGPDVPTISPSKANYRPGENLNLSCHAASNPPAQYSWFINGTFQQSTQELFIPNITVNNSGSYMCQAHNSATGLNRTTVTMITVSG
Experimental: Each expressed 96 recombinant humanized antibody was poured and reacted in a test tube containing the same amount ([…]) of CD66c-positive A549 non-small-cell lung cancer cell line at 4° C. for 30 minutes, washed with PBS, and treated with FITC-conjugated goat anti-Human IgG (DiNona Inc, Korea) was added and incubated at 4° C. for 15 minutes. After washing with PBS, the cells were analyzed with a flow cytometer (Stratedigm, S1000EXi) and the results are shown below.
Among the 96 recombinant humanized antibody candidates, eight were firstly selected based on the degree of expression, the presence of aggregation, and the degree of cell binding (Table 9 and Table 10, FIGS. 3A to 3E).

[4] = molecular target: T1, Antigen CD66c (CEACAM6; Sino …); test: ELISA, coated CEACAM6 100 ng/well, antibody 3333.33 ng/ml
Experimental: as §1, §2

[5] = molecular target: T1, Antigen CD66c (CEACAM6; Sino …); test: ELISA, coated CEACAM6 100 ng/well, antibody 10000.00 ng/ml
Experimental: as §1, §2

[6] = molecular target: T1, Antigen CD66c (CEACAM6; Sino …); test: ELISA, coated CEACAM6 100 ng/well, antibody 123.46 ng/ml
Experimental: as §1, §2

[7] = molecular target: T3, CEACAM1 antigen (Sino Biological, Inc.) (UniProt P13688 35-428); test: ELISA, coated CEACAM1 100 ng/well, antibody 10000.00 ng/ml
T3 construct: Bought antigen coated on the ELISA plate; construct not described; also called CEACAM1 (CD66a) antigen; CD66a
T3 sequence (looked up): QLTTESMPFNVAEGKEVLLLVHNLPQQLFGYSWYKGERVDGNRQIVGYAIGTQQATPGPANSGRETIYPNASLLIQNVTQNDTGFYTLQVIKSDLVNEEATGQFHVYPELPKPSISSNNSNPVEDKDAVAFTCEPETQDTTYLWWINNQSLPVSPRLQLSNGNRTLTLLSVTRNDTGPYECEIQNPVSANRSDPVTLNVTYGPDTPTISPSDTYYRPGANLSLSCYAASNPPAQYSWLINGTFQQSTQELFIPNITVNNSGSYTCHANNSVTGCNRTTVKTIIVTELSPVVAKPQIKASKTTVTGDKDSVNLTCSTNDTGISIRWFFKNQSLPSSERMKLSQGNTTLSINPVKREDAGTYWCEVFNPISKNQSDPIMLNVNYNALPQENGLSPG
Experimental: as §1, §2

[8] = molecular target: T3, CEACAM1 antigen (Sino Biological, Inc.); test: ELISA, coated CEACAM1 100 ng/well, antibody 4.57 ng/ml
Experimental: as §1, §2

[9] = molecular target: T1, Antigen CD66c (CEACAM6; Sino …); test: ELISA, coated CEACAM6 100 ng/well, antibody 4.57 ng/ml
Experimental: as §1, §2

[10] = molecular target: T3, CEACAM1 antigen (Sino Biological, Inc.); test: ELISA, coated CEACAM1 100 ng/well, antibody 1.52 ng/ml
Experimental: as §1, §2

[11] = molecular target: T3, CEACAM1 antigen (Sino Biological, Inc.); test: ELISA, coated CEACAM1 100 ng/well, antibody 1111.11 ng/ml
Experimental: as §1, §2

[12] = molecular target: T3, CEACAM1 antigen (Sino Biological, Inc.); test: ELISA, coated CEACAM1 100 ng/well, antibody 0.51 ng/ml
Experimental: as §1, §2

[13] = molecular target: T1, Antigen CD66c (CEACAM6; Sino …); test: ELISA, coated CEACAM6 100 ng/well, antibody 370.37 ng/ml
Experimental: as §1, §2

[14] = molecular target: T3, CEACAM1 antigen (Sino Biological, Inc.); test: ELISA, coated CEACAM1 100 ng/well, antibody 370.37 ng/ml
Experimental: as §1, §2

B1: anti-CD66c chimeric antibody 8F5 (antibody, human IgG1, V domains shown)
VH: EVQLQQSGPELVKPGASMKISCKASGYSFTDYTMNWVKQSHGKNLEWIGLINPFHGGTVSNQRFKVKATLTVDVSSNTAYMELLSLTSDDSAVYYCVRGDPVRHYYALAYWGQGTSVTVSS
VL: DIQMTQSPASLSASVGETVTITCGASENVYGTLNWYQRKQGKSPQLLIYGATNLADGMSSRFSGSGSGRQYSLKISSLHPDDVATYYCQNVLSAPYTFGGGTKLEII
notes: also called chimeric 8F5 antibody; chi 8F5
[1]
  OD 450 nm: 0.4 OD
[2]
  OD 450 nm: 0.41 OD
[3]
  Mean: 619
[4]
  OD 450 nm: 3.41 OD
[5]
  OD 450 nm: 3.17 OD
[6]
  OD 450 nm: 2.83 OD
[7]
  OD 450 nm: 1.21 OD
[8]
  OD 450 nm: 0.28 OD
[9]
  OD 450 nm: 0.8 OD
[10]
  OD 450 nm: 0.16 OD
[11]
  OD 450 nm: 1.21 OD
[12]
  OD 450 nm: 0.1 OD
[13]
  OD 450 nm: 3.3 OD
[14]
  OD 450 nm: 1.13 OD

B2: recombinant humanized anti-CD66c antibody Protein ID 3058 (Vk8 + VH11) (antibody, human IgG1, V domains shown)
VH: QVQLVQSGAEVKKPGASVKISCKASGYSFTDYTMHWVKQAPGQNLEWIGLINPFGGSTSYAQKFKGRVTMTRDTSTNTAYMELSRLRSDDTAVYYCVRGDPVRHYYALAYWGQGTLVTVSS
VL: DIQMTQSPSTLSASVGDRVTITCRASENVYGTLNWYQRKPGKAPKLLIYGATNLADGMPSRFSGSGSGTEYTLTISSLQPDDFATYYCQNVLSAPYTFGGGTKLEIK
notes: also called hu 3058; #86
[1]
  OD 450 nm: 0.37 OD
[2]
  OD 450 nm: 0.38 OD
[3]
  Mean: 645
[4]
  OD 450 nm: 3.18 OD
[5]
  OD 450 nm: 2.87 OD
[6]
  OD 450 nm: 2.22 OD
[7]
  OD 450 nm: 0.42 OD
[8]
  OD 450 nm: 0.05 OD
[9]
  OD 450 nm: 0.74 OD
[10]
  OD 450 nm: 0.05 OD
[11]
  OD 450 nm: 0.19 OD
[12]
  OD 450 nm: 0.04 OD
[13]
  OD 450 nm: 2.8 OD
[14]
  OD 450 nm: 0.12 OD

B3: recombinant humanized anti-CD66c antibody Protein ID 3007 (Vk7 + VH6) (antibody, human IgG1, V domains shown)
VH: QVQLVQSGAEVKKPGASMKISCKASGYSFTDYTMNWVKQAPGQNLEWIGLINPFHGGTVSNQRFKVKATLTVDVSTNTAYMELSRLRSDDTAVYYCVRGDPVRHYYALAYWGQGTLVTVSS
VL: DIQMTQSPSTLSASVGDRVTITCGASENVYGTLNWYQRKPGKAPKLLIYGATNLADGVPSRFSGSGSGTEYTLTISSLQPDDFATYYCQNVLSAPYTFGGGTKLEIK
notes: also called hu 3007; #43
[1]
  OD 450 nm: 0.53 OD
[2]
  OD 450 nm: 0.64 OD
[3]
  Mean: 565
[4]
  OD 450 nm: 3.24 OD
[5]
  OD 450 nm: 3.37 OD
[6]
  OD 450 nm: 2.9 OD
[7]
  OD 450 nm: 1.01 OD
[8]
  OD 450 nm: 0.27 OD
[9]
  OD 450 nm: 1.02 OD
[10]
  OD 450 nm: 0.18 OD
[11]
  OD 450 nm: 1.06 OD
[12]
  OD 450 nm: 0.11 OD
[13]
  OD 450 nm: 3.16 OD
[14]
  OD 450 nm: 0.92 OD

B4: recombinant humanized anti-CD66c antibody Protein ID 2938 (Vk5 + VH7) (antibody, human IgG1, V domains shown)
VH: QVQLVQSGAEVKKPGASMKISCKASGYSFTDYTMNWVRQAPGQGLEWIGLINPFHGGTVSNQRFKVKATLTVDVSTNTAYMELSRLRSDDTAVYYCVRGDPVRHYYALAYWGQGTLVTVSS
VL: DIQMTQSPSTLSASVGDRVTITCGASENVYGTLAWYQRKPGKAPKLLIYGATNLADGVPSRFSGSGSGREYTLTISSLQPDDFATYYCQNVLSAPYTFGGGTKLEIK
notes: also called hu 2938
[1]
  OD 450 nm: 0.3 OD
[2]
  OD 450 nm: 0.36 OD
[3]
  Mean: 611
[4]
  OD 450 nm: 3.27 OD
[5]
  OD 450 nm: 3.43 OD
[6]
  OD 450 nm: 2.56 OD
[7]
  OD 450 nm: 0.32 OD
[8]
  OD 450 nm: 0.05 OD
[9]
  OD 450 nm: 0.65 OD
[10]
  OD 450 nm: 0.05 OD
[11]
  OD 450 nm: 0.21 OD
[12]
  OD 450 nm: 0.05 OD
[13]
  OD 450 nm: 3.08 OD
[14]
  OD 450 nm: 0.14 OD

B5: recombinant humanized anti-CD66c antibody Protein ID 3043 (Vk8 + VH6) (antibody, human IgG1, V domains shown)
VH: QVQLVQSGAEVKKPGASMKISCKASGYSFTDYTMNWVKQAPGQNLEWIGLINPFHGGTVSNQRFKVKATLTVDVSTNTAYMELSRLRSDDTAVYYCVRGDPVRHYYALAYWGQGTLVTVSS
VL: DIQMTQSPSTLSASVGDRVTITCRASENVYGTLNWYQRKPGKAPKLLIYGATNLADGMPSRFSGSGSGTEYTLTISSLQPDDFATYYCQNVLSAPYTFGGGTKLEIK
notes: also called hu 3043; #71
[1]
  OD 450 nm: 0.41 OD
[2]
  OD 450 nm: 0.49 OD
[3]
  Mean: 686
[4]
  OD 450 nm: 2.95 OD
[5]
  OD 450 nm: 2.73 OD
[6]
  OD 450 nm: 2.29 OD
[7]
  OD 450 nm: 0.91 OD
[8]
  OD 450 nm: 0.27 OD
[9]
  OD 450 nm: 0.91 OD
[10]
  OD 450 nm: 0.16 OD
[11]
  OD 450 nm: 1.17 OD
[12]
  OD 450 nm: 0.1 OD
[13]
  OD 450 nm: 2.92 OD
[14]
  OD 450 nm: 0.8 OD
